Source: article PMC4043579 (Reproduction (Cambridge, England), 2014)

Target: T1, mouse gremlin-2 (GREM2; PRDC) (mouse, UniProt O88273 22-168)
T1 sequence (looked up): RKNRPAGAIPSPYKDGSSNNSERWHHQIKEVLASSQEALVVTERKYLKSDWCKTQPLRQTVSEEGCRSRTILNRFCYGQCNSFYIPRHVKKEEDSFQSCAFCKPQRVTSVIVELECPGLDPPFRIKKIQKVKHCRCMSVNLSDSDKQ
Test: co-IP

- binding result: binds
B1: human anti-Müllerian hormone (AMH) (ligand, UniProt P03971 452-560, looked up)
chain: SAGATAADGPCALRELSVDLRAERSVLIPETYQANNCQGVCGWPQSDRNPRYGNHVVLLLKMQVRGAALARPPCCVPTAYAGKLLISLSEERISAHHVPNMVATECGCR
